Laboratory results taken from US20250154271A1 (published 2025).

Legend:
[1] = biological target: T1, canine NGF (canine, UniProt Q29074 110-229 (pig entry), limits assumed); experiment: SPR Biacore, NGF amine-coupled to chip
T1 construct: also called cNGF; canine β-NGF
T1 chain: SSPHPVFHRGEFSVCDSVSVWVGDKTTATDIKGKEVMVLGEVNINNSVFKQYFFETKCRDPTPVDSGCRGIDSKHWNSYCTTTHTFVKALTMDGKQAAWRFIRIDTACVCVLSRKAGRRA
Experimental: (§1) Antibody binding affinities of the antibodies against canine NGF were determined by surface plasmon resonance (SPR) on a Biacore system (Biocore Life Sciences (GE Healthcare), Uppsala, Sweden). Immobilization of canine and rat NGF were obtained by amine coupling 5 μg/mL NGF using N-hydroxysuccinimide (NHS)/1-Ethyl-3-(3-dimethylaminopropyl) carbodiimide (EDC) chemistry. Chips were quenched with ethanolamine and the affinity with which all candidate mAbs bound to the immobilized NGF was evaluated. Various concentrations of canine and felinized anti-NGF antibodies were injected over the NGF surfaces while the association of the antibody to the antigen and the dissociation of the formed complex were monitored in real time. Kinetic analysis was performed to obtain the equilibrium dissociation constant (KD).

[2] = biological target: T2, rat NGF (rat, UniProt P25427 122-241); experiment: SPR Biacore, NGF amine-coupled to chip
T2 construct: Immobilised on the Biacore chip by amine coupling; also called rN
Experimental: as §1

T2 sequence (P25427 122-241 limits assumed): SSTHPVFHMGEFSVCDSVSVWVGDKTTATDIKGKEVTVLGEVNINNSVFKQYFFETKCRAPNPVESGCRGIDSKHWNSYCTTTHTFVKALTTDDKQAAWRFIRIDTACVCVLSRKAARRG

B1: fel48L2 chimera (antibody, V domains shown)
VH: EVQLVESGGDLVKPGGSLRLSCVASGFTFSTYGINWVRQAPGKGLQWVAYISSGGSSTYYADPVKGRFTISRDDAKNMLYLQMNSLRAEDTAIYYCAGSRYTYAYGGGYEFHFWGQGTLVTVSS
VL: QAVLNQPASVSGALGQKVTISCSGSTMDIDIFGVSWYQQLPGKAPKLLVDSDGDRPSGIPDRFSGSRSGNSGTLTITGLQAEDEADYHCQSGDSTLGALAIFGGGTHVTVLG
notes: Canine variable domains on feline constant regions
Question: What does the source list for B1?
Answer: Kd [1]: 6.25 pM; koff [1]: 2.64e-06 s⁻¹; kon [1]: 471000 M⁻¹ s⁻¹; Kd [2]: 0.285 pM; koff [2]: 1.1e-07 s⁻¹; kon [2]: 387000 M⁻¹ s⁻¹
